# Publication PMC8930769
# Molecular target: native human uromodulin (UMOD), full-length, filaments (human) (UniProt P07911)
# Experiment: cryo-EM structure; purified native UMOD filaments and His-tagged FimHL A27V mixed at a molar ratio of 1:3, 30 min, dialysed against 10 mM Na-HEPES pH 7.0; single-particle cryo-EM, 7.4 Å; FimHL docked into the difference map
substance,measurement,value
His-tagged FimHL A27V from UPEC strain UTI89 (from UniProt Q1R2J4 22-179) (domain or fragment),stoichiometry N,1
